Reference: patent publication US10947317B2, “NaPi2b-targeted antibody-drug conjugates and methods of use thereof” (Mersana Therapeutics, Inc., priority 2016, dated 2021)

Key:
[1] = tested on: TOV-21G cells; assay: Cell surface binding by flow cytometry, TOV-21G; parameters: species or system human; conditions: on ice 3 hours
Procedure: (§1) The cell surface binding of the Example 1C, XMT 1535-(EG2-MI-(10 kDa PHF-BA-(AF-HPA-Ala))) and anti-NaPi2B antibody XMT 1535, to antigen expressing cells was evaluated by flow cytometry. TOV-21G or OVCAR3 cells were grown overnight to approximately 90% confluent cultures in media, then were released from the plate surface by treatment with Trypsin-EDTA (Gibco-Thermo Fisher Scientific, USA). The detached cells were washed once with ice cold media containing 6% goat serum and resuspended in the same media. 50,000 cells were aliquoted per well of a V-bottom, 96-well plate and incubated with a range of test articles concentrations (0.23-500 nM) in 100 μl Media (1:1 mixture MCDB105 (1.5 g/L sodium bicarbonate) and Medium 199 (2.2 g/L sodium bicarbonate plus 15% FBS)) with 6% goat serum on ice for 3 hours. […] The amount of fluorescence bound per cell was determined by running 5000 cells for each treatment on a MACSQuant flow cytometer (Miltenyi Biotec, Bergisch Gladbach, Germany). The median fluorescence value for each treatment was graphed, and the binding constant, KD was calculated for each test article with GraphPad Prism software by non-linear regression using the one site specific binding model.

[2] = tested on: OVCAR3 cells; assay: Cell surface binding by flow cytometry, OVCAR3; conditions: on ice 3 hours
Procedure: as §1

[3] = Single-dose toxicity study in cynomolgus monkeys; format: in vivo
Procedure: (§2) The conjugate was administered to groups of 2 animals/sex at 0 mg/kg (Group 1), 1.25 mg/kg (1074 μg/m^2 auristatin payload equivalents; Group 2), 2.5 mg/kg (2147 μg/m^2 auristatin payload equivalents; Group 3) or 5 mg/kg (or 4294 μg/m^2 auristatin payload equivalents; Group 4) as a single iv infusion. Blood was collected for hematology, coagulation, and serum chemistry analysis from all groups on days −7, 3, 8, 15, and 22. Blood samples were also collected at predose, 10 minutes, 1, 6, 24, 48, 72, 96, and 168 hours following the end of the IV infusions, and on days 15 and 22 for the PK determination.

[4] = Plasma pharmacokinetics in cynomolgus monkeys; format: in vivo; conditions: for Plasma Half-life T1/2, Dose Range Average, Total Drug: total AF-HPA
Procedure: To determine the pharmacokinetics of the NaPi2b antibody-polymer-drug conjugates, assays were developed to measure the plasma concentration of the NaPi2b antibody-PHF-AF-HPA conjugate (i.e., conjugated AF-HPA) and concentration of the released, unconjugated AF-HPA and AF (free drugs). To determine the plasma concentration of the free drugs, the acidified plasma sample was treated with acetonitrile to precipitate plasma proteins and antibody drug conjugate and the acetonitrile containing supernatant was analyzed for free drugs by LC-MS/MS. To determine the concentration of conjugated AF-HPA, the acidified plasma sample was subjected to basic hydrolysis followed by acidification and protein precipitation with acetonitrile. The acetonitrile supernatant containing the released AF-HPA and AF was analyzed by LC-MS/MS. The standard curves for the free drugs and conjugated AF-HPA in plasma were linear over the concentration ranges of 1 to 3,000 ng/mL and 10 to 20,000 ng/mL, respectively. Total NaPi2b concentration was determined by ELISA.
as §2
The blood samples were analyzed by LC-MS/MS to determine the concentration of total AF-HPA and by ELISA to determine the total antibody concentration at each time point. FIGS. 6A and 6B show the plasma pharmacokinetics for the total antibody and total drug respectively after administration of a single dose in cynomolgus monkeys with the conjugate Example 1C at 1.25 mg/kg (1074 μg/m^2 auristatin payload equivalents; Group 2), 2.5 mg/kg (2147 μg/m^2 auristatin payload equivalents; Group 3) or 5 mg/kg (or 4294 μg/m^2 auristatin payload equivalents; Group 4). Table VIII gives the calculated AUC0 to 504 hrs and half-lives for total antibody and the total AF-HPA. Free drugs (i.e., unconjugated AF and unconjugated AF-HPA) were not detected (LLOQ of the LC MS/MS method was 1 ng/mL).

[5] = Recovery Necropsy, 1.25 mg/kg single iv infusion
[6] = Recovery Necropsy, 2.5 mg/kg single iv infusion
[7] = Recovery Necropsy, 5 mg/kg single iv infusion
[8] = Terminal Necropsy, 1.25 mg/kg single iv infusion
[9] = Terminal Necropsy, 2.5 mg/kg single iv infusion
[10] = Terminal Necropsy, 5 mg/kg single iv infusion
[11] = single iv infusion 1.25-5 mg/kg
[12] = single iv infusion up to 5 mg/kg
[13] = single IV infusion 1.25, 2.5 or 5 mg/kg, plasma
[14] = single IV infusion 1.25, 2.5 or 5 mg/kg, plasma, listed as XMT-1535-polymer-drug conjugate

With “XMT-1535-(EG2-MI-(10 kDa PHF-BA-(AF-HPA-Ala))) [Example 1C]” the Kd [1] was 3.97 nM, the Kd [2] was 3.84 nM and the moribundity ([3]; Groups 2, 3, and 4 (1.25, 2.5, 5 mg/kg)) was “no moribundity”. The “Test article related findings, Bone Marrow” value [3, 5] was “None”, the “Test article related findings, Cecum” value [3, 5] was “None” and the “Test article related findings, Liver” value [3, 5] was “None”. The “Test article related findings, Lung” value [3, 5] was “None”, the “Test article related findings, Stomach” value [3, 5] was “None” and the “Test article related findings, Testes” value [3, 5] was “None”. The “Test article related findings, Urinary Bladder” value [3, 5] was “None”, the “Test article related findings, Bone Marrow” value [3, 6] was “None” and the “Test article related findings, Cecum” value [3, 6] was “None”. The “Test article related findings, Liver” value [3, 6] was “None”, the “Test article related findings, Lung” value [3, 6] was “None” and the “Test article related findings, Stomach” value [3, 6] was “None”. The “Test article related findings, Testes” value [3, 6] was “None”, the “Test article related findings, Urinary Bladder” value [3, 6] was “None” and the “Test article related findings, Bone Marrow” value [3, 7] was “None”. For the same substance, the “Test article related findings, Cecum” value [3, 7] was “None”, the “Test article related findings, Liver” value [3, 7] was “None” and the “Test article related findings, Stomach” value [3, 7] was “None”. For the same substance, the “Test article related findings, Testes” value [3, 7] was “None”, the “Test article related findings, Urinary Bladder” value [3, 7] was “None” and the “Test article related findings, Bone Marrow” value [3, 8] was “None”. For the same substance, the “Test article related findings, Cecum” value [3, 8] was “None”, the “Test article related findings, Liver” value [3, 8] was “None” and the “Test article related findings, Lung” value [3, 8] was “None”. For the same substance, the “Test article related findings, Testes” value [3, 8] was “None”, the “Test article related findings, Urinary Bladder” value [3, 8] was “None” and the “Test article related findings, Bone Marrow” value [3, 9] was “None”. For the same substance, the “Test article related findings, Liver” value [3, 9] was “None”, the “Test article related findings, Lung” value [3, 9] was “None” and the “Test article related findings, Stomach” value [3, 9] was “None”. For the same substance, the “Test article related findings, Testes” value [3, 9] was “None”, the “Test article related findings, Urinary Bladder” value [3, 9] was “None” and the “Test article related findings, Bone Marrow” value [3, 10] was “None”. For the same substance, the “Test article related findings, Cecum” value [3, 10] was “None”, the “Test article related findings, Testes” value [3, 10] was “None” and the therapeutic index ([3]; based on the efficacy and the non-human primate toxicological study) was “about 6”. The “test article related findings in recovery animals” value ([3]; recovery necropsy, one in each tissue) was “in the liver (Groups 2 to 4), spleen (Groups 3 and 4), and lung (Group 4) but none of these were considered adverse”, the persistence of alterations ([3]; recovery period) was “None of the alterations detected persisted through the recovery period” and the albumin levels [3, 11] was “decreased”. The “albumin to globulin ratios” value [3, 11] was “decreased”, the “aspartate aminotransferase (AST) levels” value [3, 11] was “elevated” and the “creatine kinase (CK) levels” value [3, 11] was “elevated”. The globulin concentrations [3, 11] was “increased”, the “gross findings at necropsy or related body weight loss” value [3, 11] was “no test article gross findings at necropsy or related body weight loss” and the monocytes [3, 11] was “monocytosis”. For the same substance, the myelosuppression [3, 11] was “no myelosuppression”, the neutropenia [3, 11] was “no neutropenia” and the neutrophil counts [3, 11] was “transient increase”. The bone marrow toxicity [3, 12] was “no evidence of bone marrow toxicity”, the target-mediated toxicity [3, 12] was “no observed target-mediated toxicity” and the tolerability ([3]; single iv infusion up to 5 mg/kg (4294 μg/m^2 auristatin payload equivalents)) was “well tolerated”. The “adverse changes involving the gastrointestinal tract” value ([3]; terminal necropsy) was “One animal in all groups was affected”, the “Free drugs (unconjugated AF and unconjugated AF-HPA) in plasma” value ([4]; LLOQ of the LC MS/MS method was 1 ng/mL) was “not detected” and the stability in plasma ([4]; in vivo, cynomolgus plasma) was “good stability in plasma with little or no detection of free drugs”. The “AUC0-504 hrs (total AF-HPA)” value ([4]; plasma) was roughly 157 µg·h/mL/mg/kg, the “Plasma Half-life T1/2, Dose Range Average, Total Antibody” value [4, 13] was 211 ± 17 h and the “Plasma Exposure AUC0-504 hrs Dose Normalized, Total Antibody” value ([4]; single IV infusion 1.25, 2.5 or 5 mg/kg, plasma, ELISA) was 1,407 ± 99 μg · hrs/mL/mg/kg. The “Plasma Half-life T1/2, Dose Range Average, Total Antibody” value [4, 14] was roughly 220 h, the “Plasma Half-life T1/2, Dose Range Average, Total Drug” value [4, 13] was 125 ± 4.8 h and the “Plasma Exposure AUC0-504 hrs Dose Normalized, Total Drug” value ([4]; single IV infusion 1.25, 2.5 or 5 mg/kg, plasma, total AF-HPA by LC-MS/MS) was 157 ± 13 µg·h/mL/mg/kg. The “Plasma Half-life T1/2, Dose Range Average, Total Drug” value [4, 14] was roughly 120 h.
